T1: human β-FXIIa (HFXIIAB; Molecular Innovations) (human, UniProt P00748 354-362; P00748 373-615)
T1 chain 1: NGPLSCGQR
T1 chain 2: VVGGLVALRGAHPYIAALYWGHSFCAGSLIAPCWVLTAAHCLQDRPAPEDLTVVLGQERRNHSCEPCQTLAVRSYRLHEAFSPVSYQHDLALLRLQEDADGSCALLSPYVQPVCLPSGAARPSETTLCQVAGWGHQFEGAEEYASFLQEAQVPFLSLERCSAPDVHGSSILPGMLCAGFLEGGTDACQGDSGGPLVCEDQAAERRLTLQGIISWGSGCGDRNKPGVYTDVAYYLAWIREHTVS

B1: peptide 8 (peptide 2, Phe3 to isoleucine) (peptide)
peptide: RCIRLPCRQLRCRW-NH2
modifications: linker 2-7-12 via TATA; N-terminus assumed
SMILES: CC[C@H](C)[C@@H]1NC(=O)[C@@H](NC(=O)[C@@H](N)CCCNC(=N)N)CSCCC(=O)N2CN3CN(C2)C(=O)CCSC[C@H](NC(=O)[C@@H]2CCCN2C(=O)[C@H](CC(C)C)NC(=O)[C@H](CCCNC(=N)N)NC1=O)C(=O)N[C@@H](CCCNC(=N)N)C(=O)N[C@@H](CCC(N)=O)C(=O)N[C@@H](CC(C)C)C(=O)N[C@@H](CCCNC(=N)N)C(=O)N[C@H](C(=O)N[C@@H](CCCNC(=N)N)C(=O)N[C@@H](Cc1c[nH]c2ccccc12)C(N)=O)CSCCC3=O
B2: peptide 4 (peptide 2, Phe3 to tyrosine) (peptide)
peptide: RCYRLPCRQLRCRW-NH2
modifications: linker 2-7-12 via TATA; N-terminus assumed
SMILES: CC(C)C[C@@H]1NC(=O)[C@H](CCC(N)=O)NC(=O)[C@H](CCCNC(=N)N)NC(=O)[C@@H]2CSCCC(=O)N3CN(CN(C3)C(=O)CCSC[C@H](NC(=O)[C@@H](N)CCCNC(=N)N)C(=O)N[C@@H](Cc3ccc(O)cc3)C(=O)N[C@@H](CCCNC(=N)N)C(=O)N[C@@H](CC(C)C)C(=O)N3CCC[C@H]3C(=O)N2)C(=O)CCSC[C@@H](C(=O)N[C@@H](CCCNC(=N)N)C(=O)N[C@@H](Cc2c[nH]c3ccccc23)C(N)=O)NC(=O)[C@H](CCCNC(=N)N)NC1=O
B3: FXII618 variant with F in position three replaced by 3-benzothienylalanine (peptide)
peptide: RC[Bta]RLPCRQLRCRW-NH2
modifications: linker 2-7-12 via TATA
B4: peptide 5 (peptide 2, Phe3 to leucine) (peptide)
peptide: RCLRLPCRQLRCRW-NH2
modifications: linker 2-7-12 via TATA; N-terminus assumed
SMILES: CC(C)C[C@@H]1NC(=O)[C@H](CCC(N)=O)NC(=O)[C@H](CCCNC(=N)N)NC(=O)[C@@H]2CSCCC(=O)N3CN(CN(C3)C(=O)CCSC[C@H](NC(=O)[C@@H](N)CCCNC(=N)N)C(=O)N[C@@H](CC(C)C)C(=O)N[C@@H](CCCNC(=N)N)C(=O)N[C@@H](CC(C)C)C(=O)N3CCC[C@H]3C(=O)N2)C(=O)CCSC[C@@H](C(=O)N[C@@H](CCCNC(=N)N)C(=O)N[C@@H](Cc2c[nH]c3ccccc23)C(N)=O)NC(=O)[C@H](CCCNC(=N)N)NC1=O
B5: peptide 6 (peptide 2, Phe3 to alanine) (peptide)
peptide: RCARLPCRQLRCRW-NH2
modifications: linker 2-7-12 via TATA; N-terminus assumed
SMILES: CC(C)C[C@@H]1NC(=O)[C@H](CCC(N)=O)NC(=O)[C@H](CCCNC(=N)N)NC(=O)[C@@H]2CSCCC(=O)N3CN(CN(C3)C(=O)CCSC[C@H](NC(=O)[C@@H](N)CCCNC(=N)N)C(=O)N[C@@H](C)C(=O)N[C@@H](CCCNC(=N)N)C(=O)N[C@@H](CC(C)C)C(=O)N3CCC[C@H]3C(=O)N2)C(=O)CCSC[C@@H](C(=O)N[C@@H](CCCNC(=N)N)C(=O)N[C@@H](Cc2c[nH]c3ccccc23)C(N)=O)NC(=O)[C@H](CCCNC(=N)N)NC1=O
B6: peptide 7 (peptide 2, Phe3 to valine) (peptide)
peptide: RCVRLPCRQLRCRW-NH2
modifications: linker 2-7-12 via TATA; N-terminus assumed
SMILES: CC(C)C[C@@H]1NC(=O)[C@H](CCC(N)=O)NC(=O)[C@H](CCCNC(=N)N)NC(=O)[C@@H]2CSCCC(=O)N3CN(CN(C3)C(=O)CCSC[C@H](NC(=O)[C@@H](N)CCCNC(=N)N)C(=O)N[C@@H](C(C)C)C(=O)N[C@@H](CCCNC(=N)N)C(=O)N[C@@H](CC(C)C)C(=O)N3CCC[C@H]3C(=O)N2)C(=O)CCSC[C@@H](C(=O)N[C@@H](CCCNC(=N)N)C(=O)N[C@@H](Cc2c[nH]c3ccccc23)C(N)=O)NC(=O)[C@H](CCCNC(=N)N)NC1=O
B7: FXII618 variant with R in position 1 replaced by homolysine (peptide)
peptide: [hLys]CFRLPCRQLRCR-NH2
modifications: linker 2-7-12 via TATA; N-terminus assumed
SMILES: CC(C)C[C@@H]1NC(=O)[C@H](CCC(N)=O)NC(=O)[C@H](CCCNC(=N)N)NC(=O)[C@@H]2CSCCC(=O)N3CN(CN(C3)C(=O)CCSC[C@H](NC(=O)[C@@H](N)CCCCCN)C(=O)N[C@@H](Cc3ccccc3)C(=O)N[C@@H](CCCNC(=N)N)C(=O)N[C@@H](CC(C)C)C(=O)N3CCC[C@H]3C(=O)N2)C(=O)CCSC[C@@H](C(=O)N[C@@H](CCCNC(=N)N)C(N)=O)NC(=O)[C@H](CCCNC(=N)N)NC1=O
B8: peptide 66 (FXII618, Arg1 to alanine) (peptide)
peptide: ACFRLPCRQLRCR-NH2
modifications: linker 2-7-12 via TATA; N-terminus assumed
SMILES: CC(C)C[C@@H]1NC(=O)[C@H](CCC(N)=O)NC(=O)[C@H](CCCNC(=N)N)NC(=O)[C@@H]2CSCCC(=O)N3CN(CN(C3)C(=O)CCSC[C@@H](C(=O)N[C@@H](CCCNC(=N)N)C(N)=O)NC(=O)[C@H](CCCNC(=N)N)NC1=O)C(=O)CCSC[C@H](NC(=O)[C@H](C)N)C(=O)N[C@@H](Cc1ccccc1)C(=O)N[C@@H](CCCNC(=N)N)C(=O)N[C@@H](CC(C)C)C(=O)N1CCC[C@H]1C(=O)N2
B9: peptide 64 (FXII618, Arg1 to isoleucine) (peptide)
peptide: ICFRLPCRQLRCR-NH2
modifications: linker 2-7-12 via TATA; N-terminus assumed
SMILES: CC[C@H](C)[C@H](N)C(=O)N[C@H]1CSCCC(=O)N2CN3CN(C2)C(=O)CCSC[C@H](NC(=O)[C@@H]2CCCN2C(=O)[C@H](CC(C)C)NC(=O)[C@H](CCCNC(=N)N)NC(=O)[C@H](Cc2ccccc2)NC1=O)C(=O)N[C@@H](CCCNC(=N)N)C(=O)N[C@@H](CCC(N)=O)C(=O)N[C@@H](CC(C)C)C(=O)N[C@@H](CCCNC(=N)N)C(=O)N[C@H](C(=O)N[C@@H](CCCNC(=N)N)C(N)=O)CSCCC3=O
B10: Methionine (27), Leu10 (peptide)
chain: RCFRLPCRQMRCR
B11: Alanine (30), Leu10 (peptide)
chain: RCFRLPCRQARCR
B12: peptide 26 (peptide 2, Leu10 to isoleucine) (peptide)
peptide: RCFRLPCRQIRCRW-NH2
modifications: linker 2-7-12 via TATA; N-terminus assumed
SMILES: CC[C@H](C)[C@@H]1NC(=O)[C@H](CCC(N)=O)NC(=O)[C@H](CCCNC(=N)N)NC(=O)[C@@H]2CSCCC(=O)N3CN(CN(C3)C(=O)CCSC[C@H](NC(=O)[C@@H](N)CCCNC(=N)N)C(=O)N[C@@H](Cc3ccccc3)C(=O)N[C@@H](CCCNC(=N)N)C(=O)N[C@@H](CC(C)C)C(=O)N3CCC[C@H]3C(=O)N2)C(=O)CCSC[C@@H](C(=O)N[C@@H](CCCNC(=N)N)C(=O)N[C@@H](Cc2c[nH]c3ccccc23)C(N)=O)NC(=O)[C@H](CCCNC(=N)N)NC1=O
B13: Valine (25), Leu10 (peptide)
chain: RCFRLPCRQVRCR
B14: Gln9 Asparagine (22) (peptide)
chain: RCFRLPCRNLRCR
B15: Gln9 Glutamic acid (23) (peptide)
chain: RCFRLPCRELRCR
B16: peptide 41 (peptide 2, Arg4 to 4-guanidinophenylalanine) (peptide)
peptide: H-RCF[Phe(4-guanidino)]LPCRQLRCRW-NH2
modifications: linker 2-7-12 via TATA
SMILES: CC(C)C[C@@H]1NC(=O)[C@H](CCC(N)=O)NC(=O)[C@H](CCCNC(=N)N)NC(=O)[C@@H]2CSCCC(=O)N3CN(CN(C3)C(=O)CCSC[C@H](NC(=O)[C@@H](N)CCCNC(=N)N)C(=O)N[C@@H](Cc3ccccc3)C(=O)N[C@@H](Cc3ccc(NC(=N)N)cc3)C(=O)N[C@@H](CC(C)C)C(=O)N3CCC[C@H]3C(=O)N2)C(=O)CCSC[C@@H](C(=O)N[C@@H](CCCNC(=N)N)C(=O)N[C@@H](Cc2c[nH]c3ccccc23)C(N)=O)NC(=O)[C@H](CCCNC(=N)N)NC1=O
B17: peptide 39 (peptide 2, Arg4 to homoarginine) (peptide)
peptide: RCF[hArg]LPCRQLRCRW-NH2
modifications: linker 2-7-12 via TATA
B18: peptide 40 (peptide 2, Arg4 to norarginine) (peptide)
peptide: H-RCF[Agb]LPCRQLRCRW-NH2
modifications: linker 2-7-12 via TATA
B19: peptide 38 (peptide 2, Arg4 to homolysine) (peptide)
peptide: RCF[hLys]LPCRQLRCRW-NH2
modifications: linker 2-7-12 via TATA

The values that follow come from patent US20180118786A1 (published 2018).

One may read the Ki as a dissociation constant, usually derived from enzyme kinetics or from competition with a known ligand.

Starred links: 1 amine or outer side, 2 acyl side, 3 side chain; linkers in the order of their positions; H or OH if unused. Positions of bridges follow the written chain, without caps; N, C: chain ends. Non-standard residues stand in square brackets, D forms with d. No end group written: not given here. TATA = O=C(CC[*:1])N1CN(C(=O)CC[*:2])CN(C(=O)CC[*:3])C1; Phe(4-guanidino) = N=C(N)Nc1ccc(C[C@H](N)C(=O)O)cc1; Bta = N[C@@H](Cc1csc2ccccc12)C(=O)O; hArg = N=C(N)NCCCC[C@H](N)C(=O)O; Agb = N=C(N)NCC[C@H](N)C(=O)O; hLys = NCCCCC[C@H](N)C(=O)O

For the first test, the target named is T1, human β-FXIIa (HFXIIAB; Molecular …). The experiment in a line: enzyme inhibition.
As for B1, the Ki is 2010 nM. Still for that read-out and setting: for B2 the value was 82 nM; for B3, 23 nM; for B4, 70 nM. B5 displayed a Ki of 336 nM.

Molecule B6 registered a Ki of 413 nM.

The target is the same in a further test. As to the kind of experiment: enzyme inhibition. The source holds these as a separate data set.
In turn, B7 gave a Ki of 18.5 nM. Molecule B8 came in with a Ki of 177 nM. Compared with the last molecule, the Ki is about 9.6-fold higher. Still for that read-out and setting: the same measure for B9: 231 nM.

For another test the target is unchanged. As to the kind of experiment: enzyme inhibition. The source holds these as a separate data set.
With B10, the Ki worked out at 364 nM. Turning to B11, the Ki worked out at 2660 nM. B12 came in with a Ki of 199 nM. On the same count and under the same terms, the same measure for B13: 830 nM.

The next test has the same target. The experiment in a line: enzyme inhibition. This is another data set of the same source.
The molecule B14 displayed a Ki of 2550 nM. In other words, the single-digit micromolar range. As to B15, the Ki is above 10000 nM.

The target is the same in a further test. The experiment in a line: enzyme inhibition. The source holds these as a separate data set.
Consider B16, for which the Ki turned out to be 976 nM. Still for that read-out and setting: for B17 the value was 181 nM; for B18, 397 nM; for B19, 131 nM.
